Results reported in US20250171532A1 (NB HEALTH LABORATORY, published 2025).
Like-named read-outs stand apart in the source and are kept apart here.

T1: human LPA3 with FLAG tag (human LPA3 gene transfected cell) (human, UniProt Q9UBY5 1-353)
T1 construct: also called EDG7; not shown: FLAG tag added at the 5' terminal of the gene
T1 sequence: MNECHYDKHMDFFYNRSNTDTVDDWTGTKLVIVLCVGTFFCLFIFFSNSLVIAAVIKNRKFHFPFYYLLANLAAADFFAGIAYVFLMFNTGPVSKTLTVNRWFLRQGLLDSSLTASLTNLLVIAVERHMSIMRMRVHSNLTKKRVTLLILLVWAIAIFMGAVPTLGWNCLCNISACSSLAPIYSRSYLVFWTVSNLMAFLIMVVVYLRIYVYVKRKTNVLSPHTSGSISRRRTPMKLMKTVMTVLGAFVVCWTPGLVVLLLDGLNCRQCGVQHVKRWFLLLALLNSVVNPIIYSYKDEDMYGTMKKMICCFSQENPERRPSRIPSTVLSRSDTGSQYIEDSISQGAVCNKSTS

T2: mouse LPA3 with FLAG tag (mouse LPA3 gene transfected cell) (mouse, UniProt Q9EQ31 1-354)
T2 construct: not shown: FLAG tag added at the 5' terminal of the gene
T2 sequence: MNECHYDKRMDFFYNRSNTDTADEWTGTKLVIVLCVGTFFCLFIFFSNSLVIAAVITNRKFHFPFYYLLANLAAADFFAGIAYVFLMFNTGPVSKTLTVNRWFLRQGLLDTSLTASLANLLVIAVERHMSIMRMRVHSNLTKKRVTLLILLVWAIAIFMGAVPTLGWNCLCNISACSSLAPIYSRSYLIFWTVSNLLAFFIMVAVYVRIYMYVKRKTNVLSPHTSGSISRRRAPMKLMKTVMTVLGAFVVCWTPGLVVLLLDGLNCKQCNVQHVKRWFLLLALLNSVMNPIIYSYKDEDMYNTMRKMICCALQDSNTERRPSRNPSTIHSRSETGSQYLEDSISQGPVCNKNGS

B1: 210309-4-A (antibody, mouse IgG1, V domains shown)
VH: QVQLQQSGAELARPGASVKLSCKASGYTFTSYGISWVKQRTGQGLEWIGEIYPRSGNTYYNEKFKGKATLTADKSSSTAYMELRSLTSEDSAVYFCARESISRRLGWNFDVWGTGTTVTVSS
VL: DIHMTQSPASLSASVGETVTITCRASENIYSFLAWYQQKQGKSPHLVVYNAKTLTEGVPSRFSGSGSGTHFSLKINSLQPEDFGIYYCQHHYGPPLTFGAGTKLELK
notes: Mouse monoclonal from human LPA1 immunization
B2: 309-4-A-Chimera (antibody, human IgG1, kappa, L234A L235A, V domains shown)
VH: B1 VH
VL: DIHMTQSPASLSASVGETVTITCRASENIYSFLAWYQQKQGKSPHLVVYNAKTLTEGVPSRFSGSGSGTHFSLKINSLQPEDFGIYYCQHHYGPPLTFGAGTKLELKR
notes: also called chimeric anti-LPA1 antibody
B3: h309-4-A-SG1 (antibody, human IgG1, kappa, L234A L235A, V domains shown)
VH: QVQLVQSGAEVKKPGASVKVSCKASGYTFTSYGISWVRQAPGQGLEWIGEIYPRSGNTYYNEKFKGRATLTADKSTSTAYMELRSLRSDDTAVYFCARESISRRLGWNFDVWGTGTTVTVSS
VL: DIQMTQSPSSLSASVGDRVTITCRASENIYSFLAWYQQKPGKAPKLVVYNAKTLTEGVPSRFSGSGSGTDFTLTISSLQPEDFATYYCQHHYGPPLTFGAGTKLELKR
notes: also called humanized anti-LPA1 antibody

Columns and labels:
[1] = target: T3, human LPA1 (human, UniProt Q92633 1-364); assay: cell-based or functional assay
[2] = target: T4, mouse LPA1 (mouse, UniProt P61793 1-364); assay: cell-based or functional assay
[3] = target: T3, human LPA1; assay: cell-based or functional assay; remark: listed apart in the source
[4] = target: T4, mouse LPA1; assay: cell-based or functional assay; remark: listed apart in the source
[5] = target: T3, human LPA1; assay: cell-based or functional assay; remark: listed apart in the source
[6] = target: T5, human LPA2 with FLAG tag (human LPA2 gene transfected cell) (human, UniProt Q9HBW0 1-348); assay: flow cytometry, transfected HEK293FT cells, histogram shift
T5 construct: also called EDG4; not shown: FLAG tag added at the 5' terminal of the gene
Description: (§1) BTEK293FT cell was transfected with 10 μg of an expression vector carrying each synthetic gene using Lipofectamine 2000, to prepare a human LPA1 gene transfected cell, a mouse LPA1 gene transfected cell, a human LPA2 gene transfected cell, a mouse LPA2 gene transfected cell, a human LPA3 gene transfected cell, and a mouse LPA3 gene transfected cell.
(§2) The next day, the cells were washed with PBS, then detached from the cell culture dishes by an enzyme-free cell dissociation buffer (Thermo Fisher Scientific, Inc.), then washed with PBS, and then collected by centrifugation. Goat serum (Thermo Fisher Scientific, Inc.) was diluted by 2 times in FACS buffer (PBS containing 1% o of FBS), into which the cells were suspended at 1×10⁷ cells/mL. This suspension was allowed to stand at 4° C. for 30 minutes to block the cells. The cells were collected by centrifugation and suspended in FACS buffer at 4×10⁶ cells/mL, and this suspension was dispensed into a V-bottom 96-well plate (Thermo Fisher Scientific, Inc.) at 25 μL (1×10⁵ cells)/well.
(§3) The cells were collected by centrifugation and washed with 120 μL of FACS buffer. This washing operation was repeated twice. To the cell sediment, 25 μL each of Goat Anti-Mouse IgG H&L (DyLight 650) (Abcam) that was a secondary antibody diluted by 500 times in FACS buffer was dispensed, then suspended, and then allowed to stand at 4° C. for 1 hour. The cells were washed twice, then suspended in 50 μL of FACS buffer, and the whole content thereof was transferred to a V-bottom 96-well plate (Greiner), to measure the binding of antibodies to the cells using a flow cytometer (Agilent Novocyte).

[7] = target: T1, human LPA3 with FLAG tag (human LPA3 …); assay: as above
Description: as §1, §2, §3

[8] = target: T6, mouse LPA2 with FLAG tag (mouse LPA2 gene transfected cell) (mouse, UniProt Q9JL06 1-348); assay: as above
T6 construct: not shown: FLAG tag added at the 5' terminal of the gene
Description: as §1, §2, §3

[9] = target: T2, mouse LPA3 with FLAG tag (mouse LPA3 …); assay: as above
Description: as §1, §2, §3

[10] = target: T3, human LPA1; assay: flow cytometry, human LPA1-stably expressing CHO cells, median fluorescence intensity
Text: (§4) The human LPA1-stably expressing CHO cell and the mouse LPA1-stably expressing CHO cell were washed with PBS, then detached from the cell culture dishes by an enzyme-free cell dissociation buffer (Thermo Fisher Scientific, Inc.), then washed with PBS, and then collected by centrifugation. The human LPA1-stably expressing CHO cell and the mouse LPA1-stably expressing CHO cell were suspended at 1×10⁷ cells/mL in Fc Block (Sci-Tech Biosciences, Inc.) diluted by 500 times in FACS buffer, and then allowed to stand at 4° C. for 30 minutes to block the cells. The cells were collected by centrifugation and suspended in FACS buffer at 4×10⁶ cells/mL, and this suspension was dispensed into a V-bottom 96-well plate (Thermo Fisher Scientific, Inc.) at 25 μL (1×10⁵ cells)/well. As primary antibodies, the eleven types of LPA1 antibodies produced and purified by the method described above and a mouse isotype control antibody (Fujifilm Wako Pure Chemicals Corporation) were diluted stepwise, which was added to each well at 25 μL/well, and allowed to stand at 4° C. for 1 hour. The cells were collected by centrifugation and washed with 120 μL of FACS buffer. This washing operation was repeated twice. To the cell sediment, 25 μL each of Goat Anti-Mouse IgG H&L (DyLight 650) (Abcam) that was a secondary antibody diluted by 500 times in FACS buffer was dispensed, then suspended, and then allowed to stand at 4° C. for 1 hour. The cells were washed twice, then suspended in 50 μL of FACS buffer, and the binding of antibodies to the cells was measured using a flow cytometer (Agilent Novocyte).
(§5) A graph was created, in which a concentration of the antibody was plotted on the […] axis, and a median fluorescence intensity of the flow cytometer histogram was plotted on the horizontal axis. All of the eleven antibodies were confirmed to dose-dependently bind to the human LPA1-stably expressing CHO cell and the mouse LPA1-stably expressing CHO cell. The results of the binding of each antibody to the human LPA1-stably expressing CHO cell are presented in FIG. 2A to FIG. 2K, and the results of the binding of each antibody to the mouse LPA1-stably expressing CHO cell are presented in FIG. 3A to FIG. 3K.

[11] = target: T4, mouse LPA1; assay: flow cytometry, mouse LPA1-stably expressing CHO cells, median fluorescence intensity
Text: as §4, §5

[12] = target: T3, human LPA1; assay: flow cytometry, human LPA1-stably expressing CHO cells, median fluorescence intensity; remark: listed apart in the source
Text: as §4
Subsequently, the binding activity of the human LPA1-stably expressing CHO cell to human LPA1 was measured according to the method in Example 6. A graph was created, in which a concentration of the antibody was plotted on the […] axis, and a median fluorescence intensity of the flow cytometer histogram was plotted on the horizontal axis. […] The intracellular cAMP signaling inhibitory activity was also measured according to the method in Example 7.

T4 sequence (P61793 whole entry): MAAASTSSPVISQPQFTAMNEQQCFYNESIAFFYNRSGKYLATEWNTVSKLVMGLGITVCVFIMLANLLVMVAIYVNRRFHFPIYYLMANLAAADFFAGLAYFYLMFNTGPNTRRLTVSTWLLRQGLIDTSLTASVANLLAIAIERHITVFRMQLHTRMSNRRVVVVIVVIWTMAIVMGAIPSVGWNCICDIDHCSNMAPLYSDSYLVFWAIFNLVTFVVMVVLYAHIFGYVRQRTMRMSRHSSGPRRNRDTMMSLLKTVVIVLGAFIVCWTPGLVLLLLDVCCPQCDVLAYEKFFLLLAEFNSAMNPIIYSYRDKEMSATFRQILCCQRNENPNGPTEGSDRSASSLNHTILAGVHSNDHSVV
T3 sequence (Q92633 whole entry): as the sequence (P61793 whole entry) above, with A4I, S8I, Q22P, Y40H, V61I, D193E, H194N, V269I, N331S, N335T counted along it
T6 sequence (Q9JL06 whole entry): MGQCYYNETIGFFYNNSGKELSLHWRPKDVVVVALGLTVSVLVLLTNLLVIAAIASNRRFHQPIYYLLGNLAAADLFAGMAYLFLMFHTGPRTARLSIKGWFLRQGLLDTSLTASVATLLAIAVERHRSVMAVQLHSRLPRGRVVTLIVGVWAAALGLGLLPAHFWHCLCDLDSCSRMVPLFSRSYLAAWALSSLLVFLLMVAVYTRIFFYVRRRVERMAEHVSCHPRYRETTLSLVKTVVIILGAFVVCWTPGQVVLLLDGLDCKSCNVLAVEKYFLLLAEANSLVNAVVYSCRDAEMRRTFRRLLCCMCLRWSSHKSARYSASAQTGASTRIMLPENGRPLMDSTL
T5 sequence (Q9HBW0 other isoform, or with tags, fused parts or gaps): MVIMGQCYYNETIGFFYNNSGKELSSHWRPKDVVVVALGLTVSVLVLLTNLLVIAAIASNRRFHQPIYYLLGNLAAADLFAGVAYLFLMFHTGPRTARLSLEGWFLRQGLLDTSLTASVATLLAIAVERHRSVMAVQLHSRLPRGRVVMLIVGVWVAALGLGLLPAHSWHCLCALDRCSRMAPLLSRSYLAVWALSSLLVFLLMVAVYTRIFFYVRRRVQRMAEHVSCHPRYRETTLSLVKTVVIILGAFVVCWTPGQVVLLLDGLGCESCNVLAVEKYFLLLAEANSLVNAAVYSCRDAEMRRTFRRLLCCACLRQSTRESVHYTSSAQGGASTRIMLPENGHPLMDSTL

Binder | Intracellular cAMP signaling inhibition (Inhibition rate %/100 nM) [1] | Intracellular cAMP signaling inhibition (Inhibition rate %/100 nM) [2] | Intracellular cAMP signaling inhibition IC50 [3] | Intracellular cAMP signaling inhibition IC50 [4] | Intracellular cAMP signaling inhibition IC50 [5] | binding result [6] | binding result [7] | binding result [8] | binding result [9] | EC50 [10] | EC50 [11] | EC50 [12]
B1 | 95% | 50% | 5.3 nM | 23.8 nM | 4.5 nM | no binding (tested: 25 g/mL (so in the source)) | no binding (tested: 25 g/mL (so in the source)) | no binding (tested: 25 g/mL (so in the source)) | no binding (tested: 25 g/mL (so in the source)) | 1.5 nM | 1.1 nM | 1.4 nM
B2 | – | – | – | – | 1 nM | – | – | – | – | – | – | 4.4 nM
B3 | – | – | – | – | 5.7 nM | – | – | – | – | – | – | 4.2 nM
